# Data as given in patent US20250243282A1 (TRUEBINDING, published 2025).
# B1: 847.21B11 (antibody, V domains shown)
# VH: QVQLKQSGPGLVAPSQSLSITCTVSGFSLTSYGVHWVRQPPGKGLEWLGIIWAGGSTNYNPALMSRLSISKDKSKSQVFLKMNSLKTDDTAMYYCARDRASLLRPGAMDYWGQGTSVTVSS
# VL: DIVMTQSQKFMSTSVGDRVSVTCKASQNVGINVAWYQQKPGQSPKALIYSASYRYSGVPDRFTGSGSGTDFTLTISNVQSEDLAEYFCQQYNSYPYTFGGGTKLEMK
# B2: 2D10.2B2 (antibody, mouse IgG2a, V domains shown)
# VH: QVQLQQSGPELVKPGASVKISCKASGYTFTDYYINWVKQRPGQGLEWIGWIYPGSNDTKYNEKFKGKATLTVDTSSSTAYMQLGSLTSEDSAVYFCANYFGCSGWFFDVWGTGTTVTVSS
# VL: DIVMTQAAFSNPVTLGTSASISCRSSKSLLHSDGITYLYWYLQRPGQSPQLLIYRMSNLASGVPDRFSGSGSGTDFTLRISRVEAEDVGVYYCAQMIEFPLTFGAGTILELKR
# B3: mIMT001 (antibody, mouse IgG2a, V domains shown)
# VH: QIQLVQSGPELKKPGETVKISCKASGYTFTNYGMNWVKQAPGKGLKWMGWINTNTGEPTYVEEFKGRFAFSLETSASTAYLQINNLKNEDTATYFCAPYDNFFAYWGQGTLVTVSA
# VL: DIVITQDELSNPVTSGESVSISCRSSKSLLYKDGKTYLNWFLQRPGQSPQLLIYLMSTHASGVSDRFSGSGSGTDFTLEISRVKAEDVGVYYCQQLVDYPLTFGAGTKLELKR
# notes: also called murine IMT1; mIMT1
# B4: 847.15F9 (antibody, V domains shown)
# VH: QVQMKQSGPGLVQPSQSLSITCTVSGFSLINYGVHWVRQSPGKGLEWLGVIWSGGSTDYNAAFISRLSISKDNSKSQVFFKMNSLQADDTAIYYCARIYYYGRGYAMDYWGQGTSVTVSS
# VL: QIVLSQSPAILSASPGEKVTMTCRASSSVTYMYWYQQKPGSSPQPWIYATSNLASGVPARFSGSGSGTSYSLTISRVEAEDAATYYCQQWSSNPLTFGAGTKLELK
# B5: 6H6.2D6 (antibody, human IgG4 S228P, kappa, V domains shown)
# VH: QIQLVQSGPELKKPGETVKISCKASGYTFTTYGMSWVKQAPGKGLKWMAWINTYSGVPTYADDFKGRFAFSLETSASTAYLQINNLTNEDTATYFCARGPYAMDYWGQGTSVTVSS
# VL: DIQMTQTTSSLSASLGDRVTISCSASQGISNYLNWYQQKPDGTVKLLIYYTSSLHSGVPSRFSGSGSGTDYSLTISNLEPEDIATYYCQQYSELPYTFGSGTKLEIKR
# B6: TB006 (antibody, human IgG4 S228P, kappa, V domains shown)
# VH: QVQLVQSGAEVKKPGASVKVSCKASGYSFTNYYMHWVRQAPGQRLEWMGWIYPGSGNTNYNEKFQGRVTITADTSASTAYMELSSLRSEDTAVYYCSTAPGGFDVWGQGTTVTVSS
# VL: DIVMTQTPLSLSVTPGQPASISCKSSKSLLHSDGITYLYWYLQKPGQSPQLLIYRMSNLASGVPDRFSGSGSGTDFTLKISRVEAEDVGVYYCAQMLEFPLTFGQGTKLEIKR
# notes: also called 4A11.H3L1; IMT006a
# B7: 24D12.2H9 (antibody, human IgG4 S228P, kappa, V domains shown)
# VH: QVQLKQSGPGLVQPSQSLSITCTVSGFSLTSYGVHWVRQAPGKGLEWLGVIWSGGSTDYNAAFMSRLSISKDNSKSQVFFKMNSLQADDTAIYYCAKSPDGYDVAWFGYWGQGTLVTVSA
# VL: DIVMTQSHKFMSTSVGDRVSITCKASQDVRTAVAWYQQKPGQSPKLLIYWASTRHTGVPDRFTGSGSGTDFTLTLSNVQSEDLADYFCQQYSSYPWTFGGGTKLEIKR
# B8: recombinant human CD147, 6xHis-tagged (R&D Systems, 972-EMN) (receptor, not shown: small tags and cut ends)
# chain: AAGTVFTTVEDLGSKILLTCSLNDSATEVTGHRWLKGGVVLKEDALPGQKTEFKVDSDDQWGEYSCVFLPEPMGTANIQLHGPPRVKAVKSSEHINEGETAMLVCKSESVPPVTDWAWYKITDSEDKALMNGSESRFFVSSSQGRSELHIENLNMEADPGQYRCNGTSSKGSDQAIITLRVRSHLAAL
# notes: also called hCD147; EMMPRIN
# B9: TB001 (antibody, human IgG4 S228P, kappa, V domains shown)
# VH: QVQLVQSGSELKKPGASVKVSCKASGYTFTNYGMNWVRQAPGQGLKWMGWINTNTGEPTYVEEFTGRFVFSLETSVSTAYLQISSLKAEDTAVYFCAPYDNFFAYWGQGTTVTVSS
# VL: DIVLTQSPLSLPVTPGEPASISCRSSKSLLYKDGKTYLNWFLQKPGQSPQLLIYLMSTHASGVPDRFSGSGSGTDFTLKISRVEAEDVGVYYCQQLVDYPLTFGGGTKLEIKR
# B10: 846T.4C9 (antibody, V domains shown)
# VH: EVQLQQSGPELVKPGASVKMSCKASGYSFTNYIMHWVKQKPGQGLEWIGYINPYNDGTKYNEKFKGKATLTSDKSSSTAYMELSSLTSEDSAVYYCARLLFYYAMDYWGQGTSVTVSS
# VL: DILMTQTPSSMSVSLGDTVSITCHASQGISSNIGWLQQKPRKSFKGLIYYGTNLEDGVPSRFSGSGSGADYSLTISSLESEDFADYYCVQYDQFPWTFGGGTKLEIK
# Assays:
# [1] = target: T1, Recombinant human Gal3 (rhGal3) (TrueBinding, #QC200361) (human, UniProt P17931 2-250); experiment: cell-based or functional assay
# [2] = target: T1, Recombinant human Gal3 (rhGal3) …; experiment: cell-based or functional assay; remark: listed apart in the source
# [3] = target: T2, human Gal3 protein (recombinant human Galectin-3) (human, UniProt P17931 2-250); experiment: SPR (Carterra LSA), antibody immobilised on HC200M chip, hGal3 injected
# T2 construct: also called hGal3; hGAL3
# [4] = target: T2, human Gal3 protein (recombinant human …)
# [5] = target: T1, Recombinant human Gal3 (rhGal3) …; experiment: cell-based or functional assay; remark: listed apart in the source
# [6] = target: T2, human Gal3 protein (recombinant human …); experiment: BLI binding activity, accelerated stability 25°C/60% RH, 1 month
# [7] = target: T2, human Gal3 protein (recombinant human …); experiment: ELISA biological activity, accelerated stability 25°C/60% RH, 1 month
# [8] = target: T2, human Gal3 protein (recombinant human …); experiment: BLI binding activity, long-term stability 5°C, 0 months
# [9] = target: T2, human Gal3 protein (recombinant human …); experiment: ELISA blocking assay (blocked partner not stated), in-use stability bag #2, 2 h
# [10] = target: T2, human Gal3 protein (recombinant human …); experiment: BLI binding activity, long-term stability 5°C, 3 months
# [11] = target: T2, human Gal3 protein (recombinant human …); experiment: ELISA blocking assay (blocked partner not stated), in-use stability bag #2, 0.5 h
# [12] = target: T2, human Gal3 protein (recombinant human …); experiment: ELISA blocking assay (blocked partner not stated), in-use stability bag #2, 1 h
# [13] = target: T2, human Gal3 protein (recombinant human …); experiment: ELISA blocking assay (blocked partner not stated), in-use stability bag #1, 1 h
# [14] = target: T2, human Gal3 protein (recombinant human …); experiment: BLI binding activity, accelerated stability 25°C/60% RH, 3 months
# [15] = target: T2, human Gal3 protein (recombinant human …); experiment: ELISA blocking assay (blocked partner not stated), in-use stability bag #1, 0 h; Bag #1, 0 h
# [16] = target: T2, human Gal3 protein (recombinant human …); experiment: ELISA biological activity, long-term stability 5°C, 0 months; 5° C., 0 months
# [17] = target: T2, human Gal3 protein (recombinant human …); experiment: ELISA biological activity, long-term stability 5°C, 3 months
# [18] = target: T2, human Gal3 protein (recombinant human …); experiment: ELISA blocking assay (blocked partner not stated), in-use stability bag #1, 2 h
# [19] = target: T2, human Gal3 protein (recombinant human …); experiment: ELISA biological activity, accelerated stability 25°C/60% RH, 3 months
# mouse Gal3 = mouse Gal3 (mouse, UniProt P16110 2-264); experiment: method not stated (FIG. 20)
# [20] = target: T2, human Gal3 protein (recombinant human …); experiment: method not stated (FIG. 20)
# [21] = target: T2, human Gal3 protein (recombinant human …); experiment: ELISA biological activity, accelerated stability 25°C/60% RH, 0 months
# [22] = target: T2, human Gal3 protein (recombinant human …); experiment: ELISA blocking assay (blocked partner not stated), in-use stability bag #2, 4 h
# [23] = target: T2, human Gal3 protein (recombinant human …); experiment: BLI binding activity, long-term stability 5°C, 1 month
# [24] = target: T2, human Gal3 protein (recombinant human …); experiment: BLI binding activity, accelerated stability 25°C/60% RH, 0 months
# [25] = target: T2, human Gal3 protein (recombinant human …); experiment: ELISA biological activity, long-term stability 5°C, 1 month
# [26] = target: T2, human Gal3 protein (recombinant human …); experiment: ELISA blocking assay (blocked partner not stated), in-use stability bag #2, 0 h
# [27] = target: T2, human Gal3 protein (recombinant human …); experiment: ELISA blocking assay (blocked partner not stated), in-use stability bag #1, 4 h
# [28] = target: T2, human Gal3 protein (recombinant human …); experiment: ELISA blocking assay (blocked partner not stated), in-use stability bag #1, 0.5 h
# [29] = target: T2, human Gal3 protein (recombinant human …); experiment: ELISA, hGal3 coated, receptor in solution
# T2 sequence (P17931 2-250 limits assumed): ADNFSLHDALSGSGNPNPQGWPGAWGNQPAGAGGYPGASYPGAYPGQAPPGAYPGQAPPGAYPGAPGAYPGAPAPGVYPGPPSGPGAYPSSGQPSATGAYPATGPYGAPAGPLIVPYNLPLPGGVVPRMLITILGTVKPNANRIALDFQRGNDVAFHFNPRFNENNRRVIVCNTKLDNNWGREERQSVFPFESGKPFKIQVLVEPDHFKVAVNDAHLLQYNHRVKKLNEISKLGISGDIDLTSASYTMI
# Chain of mouse Gal3 (P16110 2-264 limits assumed): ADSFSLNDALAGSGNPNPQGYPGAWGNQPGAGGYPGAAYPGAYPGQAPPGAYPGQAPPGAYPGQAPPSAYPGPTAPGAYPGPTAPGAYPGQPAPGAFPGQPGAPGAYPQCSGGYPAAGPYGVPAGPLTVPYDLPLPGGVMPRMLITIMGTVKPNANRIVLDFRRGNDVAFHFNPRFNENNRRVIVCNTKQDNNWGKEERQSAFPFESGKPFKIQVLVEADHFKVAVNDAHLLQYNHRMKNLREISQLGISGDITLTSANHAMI
binder,measurement,setting,value
B1,% inhibition of CD62L shedding,[1],16.4%
same,% inhibition of IL-6 secretion,[2],27.3%
same,% inhibition of TNFα secretion,[2],-136%
same,binding result,[3],no binding
B2,% blocking,[4],> 95%
B3,% blocking,[4],> 95%
B4,% inhibition of CD62L shedding,[1],8.5%
same,% inhibition of IL-6 secretion,[2],16.6%
same,% inhibition of TNFα secretion,[2],-178%
same,binding result,[3],no binding
B5,% blocking,[4],> 95%
B6,IC50 of blocking IL-6 secretion by HL60-derived neutrophils (rhGal3 + LPS),[5],33.7 nM
same,IC50 of blocking TNFα secretion by HL60-derived neutrophils (rhGal3 + LPS),[5],11.1 nM
same,Kd,[6],2.5 nM
same,IC50,[7],1.8 µg/mL
same,Kd,[8],3 nM
same,IC50,[9],1.67 µg/mL
same,Kd,[10],3 nM
same,IC50,[11],1.66 µg/mL
same,IC50,[12],1.63 µg/mL
same,IC50,[13],1.43 µg/mL
same,Kd,[14],3.1 nM
same,IC50,[15],1.01 µg/mL
same,IC50,[16],2.5 µg/mL
same,IC50,[17],1.5 µg/mL
same,IC50,[18],1.71 µg/mL
same,% inhibition of CD62L shedding,[1],76.1%
same,IC50,[19],1.5 µg/mL
same,Kd,mouse Gal3,40000 nM
same,Kd,[20],8.9 nM
same,IC50,[21],2.5 µg/mL
same,IC50,[22],1.35 µg/mL
same,Kd,[23],2.5 nM
same,Kd,[24],3 nM
same,IC50,[25],1.8 µg/mL
same,IC50,[26],1.05 µg/mL
same,IC50,[27],1.41 µg/mL
same,IC50,[28],1.34 µg/mL
B7,% blocking,[4],55%
same,% inhibition of CD62L shedding,[1],73.1%
same,% inhibition of IL-6 secretion,[2],22.3%
same,% inhibition of TNFα secretion,[2],46.5%
B8,binding result,[29],binds
B9,IC50 of blocking IL-6 secretion by HL60-derived neutrophils (rhGal3 + LPS),[5],509 nM
same,IC50 of blocking TNFα secretion by HL60-derived neutrophils (rhGal3 + LPS),[5],393 nM
same,% inhibition of CD62L shedding,[1],87.2%
same,% inhibition of IL-6 secretion,[2],45.6%
same,% inhibition of TNFα secretion,[2],81.4%
B10,% inhibition of CD62L shedding,[1],11.2%
same,% inhibition of IL-6 secretion,[2],-38.3%
same,% inhibition of TNFα secretion,[2],-299%
same,binding result,[3],no binding
